Measurements taken from FireProtDB (doi:10.1002/pro.5560010709).

Details: Bos taurus; pH 4.2; Thermal; CD; Sodium acetate 0.01 M; NaCl 0.1 M; reversible: yes; whole UniProt chain shown

B1: Ribonuclease pancreatic wild type, P61823 (protein)
chain: MALKSLVLLSLLVLVLLLVRVQPSLGKETAAAKFERQHMDSSTSAASSSNYCNQMMKSRNLTKDRCKPVNTFVHESLADVQAVCSQKNVACKNGQTNCYQSYSTMSITDCRETGSSKYPNCAYKTTQANKHIIVACEGNPYVPVHFDASV
**Q.** Which Tm does the source give for B1 here?
**A.** The Tm was 56 °C.
